{
  "source": "paper PMC3629964",
  "molecular_target": "NH2-terminal-PEGylated HZ-TRAIL monomer (human) (UniProt P50591)",
  "experiment": "SEC + other: quantitative Western blot",
  "data": [
    {"substance": "6xHis-ILZ-hTRAIL(114-281) (from UniProt P50591 114-281) (ligand)", "values": [
      {"measurement": "stoichiometry N", "result": 2}
    ]}
  ]
}
